T1: cyclin A1 (CCNA1), isoform 3 (SEQ ID NO:4) peptide on HLA-A*02:01 (human)
T1 peptide: FLDRFLSCM

T2: cyclin A1 (CCNA1), isoform 3 (SEQ ID NO:4) peptide on HLA-A*02:01 (human)
T2 peptide: SLIAAAAFCLA

T3: cyclin A1 (CCNA1), isoform 3 (SEQ ID NO:4) peptide on HLA-A*02:01 (human)
T3 peptide: YSLSEIVPCL


Legend:
Assay in all cases: multimer staining
[1] = target: T1, cyclin A1 (CCNA1), isoform 3 (SEQ ID …)
[2] = target: T2, cyclin A1 (CCNA1), isoform 3 (SEQ ID …)
[3] = target: T3, cyclin A1 (CCNA1), isoform 3 (SEQ ID …)

Binder | binding result [1] | also measured
TCR #3 (TCR, V domains shown) Valpha: QKEVEQNSGPLSVPEGAIASLNCTYSDRGSQSFFWYRQYSGKSPELIMSIYSNGDKEDGRFTAQLNKASQYVSLLIRDSQPSDSATYLCAVDSGGYQKVTFGTGTKLQVIP Vbeta: GAGVSQTPSNKVTEKGKYVELRCDPISGHTALYWYRQSLGQGPEFLIYFQGTGAADDSGLPNDRFFAVRPEGSVSTLKIQRTERGDSAVYLCASSLNMNTEAFFGQGTRLTVV | recognises | –
TCR #4 (TCR, V domains shown) Valpha: SQQGEEDPQALSIQEGENATMNCSYKTSINNLQWYRQNSGRGLVHLILIRSNEREKHSGRLRVTLDTSKKSSSLLITASRAADTASYFCATDAWESNFGNEKLTFGTGTRLTIIP Vbeta: GAGVSQSPSNKVTEKGKDVELRCDPISGHTALYWYRQSLGQGLEFLIYFQGNSAPDKSGLPSDRFSAERTGGSVSTLTIQRTQQEDSAVYLCASSLVVGSYEQYFGPGTRLTVT | recognises | –
TCR #7 (TCR, V domains shown) Valpha: ILNVEQSPQSLHVQEGDSTNFTCSFPSSNFYALHWYRWETAKSPEALFVMTLNGDEKKKGRISATLNTKEGYSYLYIKGSQPEDSATYLCAYLGAGNQFYFGTGTSLTVIP Vbeta: DGGITQSPKYLFRKEGQNVTLSCEQNLNHDAMYWYRQDPGQGLRLIYYSQIVNDFQKGDIAEGYSVSREKKESFPLTVTSAQKNPTAFYLCASSLNRGRYGYTFGSGTRLTVV | – | binding result [2]: recognises
TCR #8 (TCR, V domains shown) Valpha: AQKVTQAQTEISVVEKEDVTLDCVYETRDTTYYLFWYKQPPSGELVFLIRRNSFDEQNEISGRYSWNFQKSTSSFNFTITASQVVDSAVYFCALSELASGGSYIPTFGRGTSLIVHP Vbeta: DAGVTQSPTHLIKTRGQQVTLRCSPKSGHDTVSWYQQALGQGPQFIFQYYEEEERQRGNFPDRFSGHQFPNYSSELNVNALLLGDSALYLCASSFRLAGGPSTDTQYFGPGTRLTVL | – | binding result [3]: recognises

Reference: patent publication US20200405762A1 (published 2020)
